In IntAct's records for PubMed 27273569:

Biological target: wsb1_human WSB1 (UniProt Q9Y6I7)
Chain of UniProt Q9Y6I7 (Q9Y6I7 whole entry): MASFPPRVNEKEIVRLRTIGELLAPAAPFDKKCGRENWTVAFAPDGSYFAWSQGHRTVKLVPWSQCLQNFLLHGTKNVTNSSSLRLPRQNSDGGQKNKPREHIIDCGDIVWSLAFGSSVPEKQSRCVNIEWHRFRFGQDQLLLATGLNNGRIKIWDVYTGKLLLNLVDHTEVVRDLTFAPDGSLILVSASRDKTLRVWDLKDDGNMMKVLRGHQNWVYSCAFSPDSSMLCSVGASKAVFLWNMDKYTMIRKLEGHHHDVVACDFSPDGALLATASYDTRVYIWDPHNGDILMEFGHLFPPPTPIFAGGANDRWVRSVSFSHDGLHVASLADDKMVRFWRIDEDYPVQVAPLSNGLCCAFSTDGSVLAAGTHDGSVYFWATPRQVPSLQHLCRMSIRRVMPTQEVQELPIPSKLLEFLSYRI

effect of a mutation on the interaction: with no effect
Substance: Leucine-rich repeat serine/threonine-protein kinase 2 (Homo sapiens), Q5S007 G2019S
